Experimental data as given in the supplement of paper PMC10724198.
± gives the standard deviation of the averaged measurements.

Tests used:
Saccharomyces cerevisiae [1] = test: protein stability index of tFT-peptide fusion (C-terminal peptide) (PSI (0-1 scale)); higher = more stable (slower turnover)
Procedure: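 MPS profiling in S. cerevisiae of the tFT-X12 degron library: putative degron peptides plus stable controls, 12 aa, fused to the C-terminus of a sfGFP-mCherry timer. Cells are FACS-sorted into 8 mCherry/sfGFP bins and deep-sequenced. PSI runs from 0 (unstable) to 1 (stable). Backgrounds are wild type, das1Δ and doa10Δ at 30 °C, and wild type, das1Δ, cdc34-1 and cdc53-1 at 37 °C; 2-3 technical replicates each.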

Saccharomyces cerevisiae [2] = test: as above; details: genetic background: wild type; temperature: 30 C
[3] = genetic background: cdc34-1, temperature: 37 C
[4] = genetic background: cdc53-1, temperature: 37 C
[5] = genetic background: das1 deletion, temperature: 30 C
[6] = genetic background: das1 deletion, temperature: 37 C
[7] = genetic background: doa10 deletion, temperature: 30 C
[8] = genetic background: wild type, temperature: 30 C
[9] = genetic background: wild type, temperature: 37 C
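Further: PSI is a weighted mean of sequencing reads over stability bins, variants kept only with over 10 reads, mCherry proximal and sfGFP distal, peptide attached via GGGS linker.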

Row | Sequence | protein stability index (Saccharomyces cerevisiae [1]; [3]) | protein stability index (Saccharomyces cerevisiae [1]; [4]) | protein stability index (Saccharomyces cerevisiae [1]; [5]) | protein stability index (Saccharomyces cerevisiae [1]; [6]) | protein stability index (Saccharomyces cerevisiae [1]; [7]) | protein stability index (Saccharomyces cerevisiae [1]; [8]) | protein stability index (Saccharomyces cerevisiae [1]; [9]) | protein stability index (Saccharomyces cerevisiae [2])
1 | LSFLALLLFFRI | 0.228 ± 0.035 | 0.22 ± 0.061 | 0.363 ± 0.04 | 0.44 ± 0.015 | 0.567 ± 0.017 | 0.372 ± 0.025 | 0.357 ± 0.019 | 0.4764 ± 0.0023
2 | LSGIILGWSVSG | 0.755 ± 0.047 | 0.76 ± 0.0077 | 0.6302 ± 0.0058 | 0.735 ± 0.047 | 0.6308 ± 0.005 | 0.645 ± 0.0062 | 0.7292 ± 0.003 | 0.676 ± 0.034
3 | LSLVYFAALFSF | 0.484 ± 0.042 | 0.529 ± 0.033 | 0.409 ± 0.019 | 0.53775 ± 0.00036 | 0.356 ± 0.025 | 0.377 ± 0.043 | 0.4858 ± 0.003 | 0.4709 ± 0.0037
4 | LSTPPLLPTPPS | 0.672 ± 0.029 | 0.7296 ± 0.0032 | 0.664 ± 0.012 | 0.7182 ± 0.0062 | 0.672 ± 0.029 | 0.669 ± 0.014 | 0.6988 ± 0.0048 | 0.7113 ± 0.0049
5 | LSVMKLFVMVGP | 0.442 ± 0.0094 | 0.493 ± 0.027 | 0.37 ± 0.026 | 0.5023 ± 0.0045 | 0.358 ± 0.0093 | 0.377 ± 0.029 | 0.479 ± 0.012 | 0.401 ± 0.039
6 | LSVSLFPIRYVG | 0.666 ± 0.027 | 0.76446 ± 1.3e-05 | 0.617 ± 0.019 | 0.7638 ± 0.0037 | 0.196 ± 0.0098 | 0.24 ± 0.02 | 0.453 ± 0.016 | 0.396 ± 0.025
7 | LVVIYPLLSSPV | 0.564 ± 0.0066 | 0.567 ± 0.019 | 0.43 ± 0.027 | 0.578 ± 0.0074 | 0.402 ± 0.014 | 0.43 ± 0.022 | 0.562 ± 0.0072 | 0.4643 ± 0.00088
8 | LWFFVGFAVYGG | 0.302 ± 0.0084 | 0.438 ± 0.018 | 0.346 ± 0.036 | 0.513 ± 0.019 | 0.306 ± 0.012 | 0.371 ± 0.0059 | 0.497 ± 0.058 | 0.455 ± 0.0066
9 | LWFRGGYLFFVV | 0.44378 ± 0.00022 | 0.444 ± 0.013 | 0.439 ± 0.025 | 0.499 ± 0.01 | 0.2 ± 0.013 | 0.185 ± 0.016 | 0.332 ± 0.0057 | 0.265 ± 0.043
10 | LWVTRVYCLLVC | 0.0444 ± 0.016 | 0.158 ± 0.03 | 0.168 ± 0.019 | 0.233 ± 0.019 | 0.0555 ± 0.02 | 0.0507 ± 0.015 | 0.0739 ± 0.015 | 0.0818 ± 0.0069
11 | LYIQWVSRWSVQ | 0.611 ± 0.029 | 0.664 ± 0.083 | 0.547 ± 0.035 | 0.669 ± 0.021 | 0.388 ± 0.011 | 0.415 ± 0.019 | 0.5818 ± 0.003 | 0.504 ± 0.025
12 | LYLCLVSPVVVL | 0.156 ± 0.011 | 0.172 ± 0.0061 | 0.226 ± 0.024 | 0.296 ± 0.0064 | 0.184 ± 0.011 | 0.204 ± 0.032 | 0.2571 ± 0.0014 | 0.296 ± 0.029
13 | LYLGCVLFVLFR | 0.197 ± 0.045 | 0.151 ± 0.024 | 0.216 ± 0.029 | 0.368 ± 0.0098 | 0.273 ± 0.0047 | 0.198 ± 0.024 | 0.312 ± 0.036 | 0.234 ± 0.054
14 | LYSVLWFCFPLV | 0.586 ± 0.039 | 0.5638 ± 0.0037 | 0.446 ± 0.025 | 0.577 ± 0.0076 | 0.442 ± 0.035 | 0.42 ± 0.024 | 0.55 ± 0.01 | 0.466 ± 0.028
15 | LYVLNILSFVCV | 0.1572 ± 0.0013 | 0.25 ± 0.0041 | 0.137 ± 0.013 | 0.251 ± 0.023 | 0.115 ± 0.0099 | 0.117 ± 0.017 | 0.207 ± 0.0027 | 0.1688 ± 0.00051
16 | MALAVRVVKCGA | 0.328 ± 0.016 | 0.376 ± 0.0062 | 0.275 ± 0.031 | 0.4361 ± 0.0027 | 0.221 ± 0.006 | 0.268 ± 0.034 | 0.397 ± 0.0054 | 0.384 ± 0.028
17 | MCRMYELYVTSS | 0.504 ± 0.046 | 0.568 ± 0.079 | 0.382 ± 0.034 | 0.588 ± 0.026 | 0.349 ± 0.025 | 0.374 ± 0.018 | 0.558 ± 0.016 | 0.467 ± 0.01
18 | MIILGFILYFFW | 0.4 ± 0.011 | 0.533 ± 0.03 | 0.332 ± 0.035 | 0.505 ± 0.018 | 0.352 ± 0.04 | 0.347 ± 0.034 | 0.444 ± 0.018 | 0.422 ± 0.033
19 | NAPSAIQKNKKC | 0.696 ± 0.016 | 0.6886 ± 0.0037 | 0.649 ± 0.036 | 0.71782 ± 0.00039 | 0.211 ± 0.016 | 0.281 ± 0.037 | 0.515 ± 0.08 | 0.433 ± 0.081
20 | NDSSWEVSLMVG | 0.693 ± 0.019 | 0.763 ± 0.021 | 0.616 ± 0.024 | 0.748 ± 0.0098 | 0.614 ± 0.041 | 0.62 ± 0.018 | 0.736 ± 0.028 | 0.363 ± 0.076

Row | Sequence | protein stability index (Saccharomyces cerevisiae [1]; [3]) | protein stability index (Saccharomyces cerevisiae [1]; [4]) | protein stability index (Saccharomyces cerevisiae [1]; [5]) | protein stability index (Saccharomyces cerevisiae [1]; [6]) | protein stability index (Saccharomyces cerevisiae [1]; [7]) | protein stability index (Saccharomyces cerevisiae [1]; [8]) | protein stability index (Saccharomyces cerevisiae [1]; [9]) | protein stability index (Saccharomyces cerevisiae [2])
21 | NECLSSKWLRIC | 0.399 ± 0.013 | 0.661 ± 0.032 | 0.631 ± 0.029 | 0.726 ± 0.025 | 0.0791 ± 0.032 | 0.111 ± 0.039 | 0.147 ± 0.035 | 0.185 ± 0.0041
22 | NFKELMEKSKYR | 0.704 ± 0.02 | 0.752 ± 0.029 | 0.677 ± 0.019 | 0.763 ± 0.028 | 0.677 ± 0.061 | 0.665 ± 0.027 | 0.718 ± 0.012 | 0.719 ± 0.018
23 | NLTAIIYTLVVD | 0.2313 ± 0.0018 | 0.466 ± 0.23 | 0.218 ± 0.032 | 0.444 ± 0.018 | 0.197 ± 0.016 | 0.225 ± 0.028 | 0.3944 ± 0.00021 | 0.31 ± 0.015
24 | NQIIRLIVGLLC | 0.55 ± 0.039 | 0.601 ± 0.017 | 0.486 ± 0.017 | 0.5867 ± 0.0055 | 0.193 ± 0.014 | 0.224 ± 0.011 | 0.355 ± 0.02 | 0.291 ± 0.016
25 | PCLLRYLVHPFP | 0.687 ± 0.026 | 0.765 ± 0.021 | 0.648 ± 0.014 | 0.7439 ± 0.0017 | 0.65 ± 0.013 | 0.667 ± 0.0086 | 0.7159 ± 0.0025 | 0.75445 ± 0.00044
26 | PCPAPRPPSPSA | 0.664 ± 0.078 | 0.721 ± 0.05 | 0.653 ± 0.0096 | 0.715 ± 0.0076 | 0.668 ± 0.031 | 0.682 ± 0.023 | 0.694 ± 0.014 | 0.435 ± 0.03
27 | PDCRPPLVRCLL | 0.9585 ± 0.0082 | 0.902 ± 0.071 | 0.827 ± 0.028 | 0.9164 ± 0.0047 | 0.8334 ± 0.0043 | 0.822 ± 0.035 | 0.936 ± 0.019 | 0.796 ± 0.03
28 | PFALTPPPSPRS | 0.745 ± 0.011 |  | 0.384 ± 0.024 | 0.583 ± 0.0083 | 0.356 ± 0.024 | 0.366 ± 0.0092 | 0.52 ± 0.046 | 0.426 ± 0.043
29 | PFFCFLLFCFSL | 0.477 ± 0.032 | 0.498 ± 0.0033 | 0.439 ± 0.033 | 0.5465 ± 0.00098 | 0.459 ± 0.0093 | 0.419 ± 0.027 | 0.5292 ± 0.0024 | 0.455 ± 0.037
30 | PFFLLAGITVAC | 0.0507 ± 0.023 | 0.0625 ± 0.026 | 0.177 ± 0.031 | 0.203 ± 0.0027 | 0.139 ± 0.0038 | 0.15 ± 0.025 | 0.16 ± 0.0058 | 0.273 ± 0.016
31 | PFLCLPFLLVSR | 0.38 ± 0.022 | 0.4056 ± 0.0025 | 0.35 ± 0.029 | 0.49 ± 0.0032 | 0.467 ± 0.017 | 0.363 ± 0.027 | 0.47142 ± 0.0004 | 0.41 ± 0.034
32 | PFPTPPPIPRSP | 0.665 ± 0.012 | 0.7375 ± 0.0026 | 0.686 ± 0.015 | 0.729 ± 0.0085 | 0.706 ± 0.035 | 0.696 ± 0.012 | 0.7051 ± 0.0068 | 0.464 ± 0.05
33 | PGRHSVRFVFVC | 0.349 ± 0.023 | 0.519 ± 0.046 | 0.444 ± 0.019 | 0.581 ± 0.024 | 0.113 ± 0.0067 | 0.112 ± 0.028 | 0.143 ± 0.0068 | 0.208 ± 0.06
34 | PKRNNRKAQQIS | 0.61 ± 0.015 | 0.698 ± 0.038 | 0.689 ± 0.019 | 0.704 ± 0.06 | 0.249 ± 0.016 | 0.254 ± 0.043 | 0.493 ± 0.019 | 0.405 ± 0.032
35 | PPAPTPFPPSPR | 0.687 ± 0.037 | 0.7216 ± 0.0033 | 0.669 ± 0.034 | 0.741 ± 0.018 | 0.697 ± 0.026 | 0.672 ± 0.024 | 0.728 ± 0.01 | 0.593 ± 0.14
36 | PPLPPPPASVPP | 0.675 ± 0.022 | 0.719 ± 0.025 | 0.641 ± 0.011 | 0.7088 ± 0.0051 | 0.6476 ± 0.0014 | 0.682 ± 0.041 | 0.68 ± 0.03 | 0.503 ± 0.016
37 | PPPPPPPFLFFL | 0.706 ± 0.018 | 0.795 ± 0.019 | 0.643 ± 0.013 | 0.747 ± 0.013 | 0.458 ± 0.015 | 0.472 ± 0.022 | 0.61 ± 0.013 | 0.496 ± 0.061
38 | PPTRVPVTLFLV | 0.395 ± 0.013 | 0.673 ± 0.017 | 0.619 ± 0.0097 | 0.6761 ± 0.0013 | 0.0767 ± 0.022 | 0.0832 ± 0.011 | 0.09 ± 0.0034 | 0.153 ± 0.013
39 | PRLWLYCLIISL | 0.173 ± 0.032 | 0.214 ± 0.016 | 0.186 ± 0.039 | 0.335 ± 0.015 | 0.157 ± 0.011 | 0.14 ± 0.03 | 0.277 ± 0.022 | 0.2062 ± 0.00075
